{
  "source": "paper PMC5051681",
  "key": {"[1]": {"target": "PKCα sensor (N-terminal mCer, C-terminal mCit) with a TEV protease site between the C2 and kinase domains (human) (UniProt P17252)", "assay": "dynamic light scattering; sensor pre-treated with TEV protease or BSA, or C2-mCit; relative increase in particle mass after 2 min with free calcium, matched concentration"}, "[2]": {"target": "regulatory domains of PKCα with mCer (N-terminal TEV product of the PKCα sensor cut between C2 and kinase) (human)", "assay": "dynamic light scattering; sensor pre-treated with TEV protease or BSA, or C2-mCit; relative increase in particle mass after 2 min with free calcium, matched concentration"}, "PKC alpha C2": {"target": "PKC alpha C2 (UniProt P17252)", "conditions": "cited from earlier work"}, "[3]": {"target": "C1a - 10 nm - C2 SPASM biosensor (human) (UniProt P17252)", "assay": "FRET or BRET; change in heteroFRET after addition of free calcium against the concentration of C1a - 10 nm - C2; Hill binding model; half-maximal value taken as an estimate of the dissociation constant"}},
  "data": [
    {"substance": "PKCα sensor (N-terminal mCer, C-terminal mCit) with a TEV protease site between the C2 and kinase domains (from UniProt P17252 1-672) (natural protein)", "values": [
      {"measurement": "mean particle size increase after free calcium (DLS, normalised)", "setting": "[1]", "value": 5.61}
    ]},
    {"substance": "regulatory domains of PKCα with mCer (N-terminal TEV product of the PKCα sensor cut between C2 and kinase) (domain or fragment)", "values": [
      {"measurement": "mean particle size increase after free calcium (DLS, normalised)", "setting": "[2]", "value": 2.61}
    ]},
    {"substance": "PKC alpha C1a (from UniProt P17252)", "values": [
      {"measurement": "Kd", "setting": "PKC alpha C2", "value": 4, "unit": "nM"}
    ]},
    {"substance": "C1a - 10 nm - C2 SPASM biosensor (from UniProt P17252 32-100; P17252 158-292)", "values": [
      {"measurement": "Kd", "setting": "[3]", "value": 61.1, "unit": "nM"}
    ]}
  ]
}
